Target: FZD/LRP
Assay: cell-based or functional assay

Sequence of Wnt3a, recombinantly produced ligand (P56704 19-352): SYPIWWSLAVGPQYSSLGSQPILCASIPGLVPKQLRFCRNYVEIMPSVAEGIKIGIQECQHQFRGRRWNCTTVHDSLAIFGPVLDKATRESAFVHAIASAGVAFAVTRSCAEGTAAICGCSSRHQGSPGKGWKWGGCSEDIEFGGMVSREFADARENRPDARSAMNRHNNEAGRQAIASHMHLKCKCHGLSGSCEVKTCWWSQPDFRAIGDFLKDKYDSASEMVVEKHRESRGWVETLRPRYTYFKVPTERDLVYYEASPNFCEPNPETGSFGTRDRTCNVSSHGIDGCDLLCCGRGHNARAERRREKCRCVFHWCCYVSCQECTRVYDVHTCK

With Wnt3a, recombinantly produced ligand the % Wnt Maxima Avg was 100%, the EC50 (nM), TOPFLASH assay was 6 nM and the Maximal Signal (% Wnt3a maxima) (% Wnt3a maxima) was 100. It also gave a Topflash EC50 (nM) Avg of 6 nM.

From patent US20250270332A1
